Consider 94 variants from the supplement of paper PMC10567573.

The labels stand for the following.
B1: EDARADD (parent)
chain: VEKVLRRWVDEEWPKRERGDPSRH
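Also: lentivirally expressed fusions sorted by FACS into six bins by GFP to DsRed ratio, PSI derived from sequencing read proportions per bin multiplied by bin number.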

In the data set the parent is B1. Briefly: protein stability index of a GFP-peptide fusion (GPS, HEK-293T) (PSI 1-6); higher = more stable. The following applies: c terminus: a fixed tail appended.
Regarding VEKVLRRWWDEEWPKRERGDPSRH [V9W], the protein stability index was found to be 3.05. The same measure for VEKVLRRWSDEEWPKRERGDPSRH [V9S]: 4.07; for VEKVLRRWHDEEWPKRERGDPSRH [V9H]: 3.46; for VEKVLRRWFDEEWPKRERGDPSRH [V9F]: 2.55. As for VEKVLRRWRDEEWPKRERGDPSRH [V9R], the figure is 3.48. As for VEKVLRRWQDEEWPKRERGDPSRH [V9Q], the figure is 3.31; as for VEKVLRRWCDEEWPKRERGDPSRH [V9C], 2.72; as for VEKVLRRWKDEEWPKRERGDPSRH [V9K], 2.9. In the case of VEKVLRRWMDEEWPKRERGDPSRH [V9M], the protein stability index is 3.17. The same measure for VEKVLRRWADEEWPKRERGDPSRH [V9A]: 3.57. As to VEKVLRRWPDEEWPKRERGDPSRH [V9P], the protein stability index was determined as 3.51. The same measure for VEKVLRRWDDEEWPKRERGDPSRH [V9D]: 4.36. Consider VEKVLRRWGDEEWPKRERGDPSRH [V9G], for which the protein stability index turned out to be 3.83. The same measure for VEKVLRRWYDEEWPKRERGDPSRH [V9Y]: 3.1; for VEKVLRRWEDEEWPKRERGDPSRH [V9E]: 4.17.

For the variant VEKVLRRWTDEEWPKRERGDPSRH [V9T], the protein stability index stood at 3.72.

Take VEKVLRRWNDEEWPKRERGDPSRH [V9N]: the protein stability index was found to be 3.59. The same measure for VEKVLRRWIDEEWPKRERGDPSRH [V9I]: 2.38; for VENVLRRWVDEEWPKRERGDPSRH [K3N]: 3.26. As for VEGVLRRWVDEEWPKRERGDPSRH [K3G], the figure is 4.05; as for VEAVLRRWVDEEWPKRERGDPSRH [K3A], 2.78. As for VETVLRRWVDEEWPKRERGDPSRH [K3T], the figure is 2.14.

On to VEWVLRRWVDEEWPKRERGDPSRH [K3W], for which the protein stability index was found to be 1.36. Take VEFVLRRWVDEEWPKRERGDPSRH [K3F]: the protein stability index was determined as 2.21.

Turning to VEPVLRRWVDEEWPKRERGDPSRH [K3P], the protein stability index was determined as 3.8.

As to VEEVLRRWVDEEWPKRERGDPSRH [K3E], the protein stability index stood at 3.55. The same measure for VECVLRRWVDEEWPKRERGDPSRH [K3C]: 3.38; for VEYVLRRWVDEEWPKRERGDPSRH [K3Y]: 2.77; for VESVLRRWVDEEWPKRERGDPSRH [K3S]: 3.01. The same measure for VEIVLRRWVDEEWPKRERGDPSRH [K3I]: 1.25; for VELVLRRWVDEEWPKRERGDPSRH [K3L]: 2.41; for VEHVLRRWVDEEWPKRERGDPSRH [K3H]: 5.03. As for VEQVLRRWVDEEWPKRERGDPSRH [K3Q], the figure is 2.85; as for VEVVLRRWVDEEWPKRERGDPSRH [K3V], 2.09; as for VEDVLRRWVDEEWPKRERGDPSRH [K3D], 4.38. In the case of VEKVLKRWVDEEWPKRERGDPSRH [R6K], the protein stability index amounted to 3.86. As for VEKVLFRWVDEEWPKRERGDPSRH [R6F], the figure is 2.76; as for VEKVLERWVDEEWPKRERGDPSRH [R6E], 3.72. The same measure for VEKVLPRWVDEEWPKRERGDPSRH [R6P]: 5.27. As for VEKVLGRWVDEEWPKRERGDPSRH [R6G], the figure is 3.12; as for VEKVLYRWVDEEWPKRERGDPSRH [R6Y], 3.13. Turning to VEKVLCRWVDEEWPKRERGDPSRH [R6C], the protein stability index is 3.06.

For the variant VEKVLMRWVDEEWPKRERGDPSRH [R6M], the protein stability index came out at 3.14. As for VEKVLLRWVDEEWPKRERGDPSRH [R6L], the figure is 2.57; as for VEKVLIRWVDEEWPKRERGDPSRH [R6I], 2.47; as for VEKVLSRWVDEEWPKRERGDPSRH [R6S], 3.6. On to VEKVLQRWVDEEWPKRERGDPSRH [R6Q], for which the protein stability index turned out to be 3.79. As for VEKVLDRWVDEEWPKRERGDPSRH [R6D], the figure is 4.34; as for VEKVLTRWVDEEWPKRERGDPSRH [R6T], 3.84; as for VEKVLNRWVDEEWPKRERGDPSRH [R6N], 3.94. For VEKVLARWVDEEWPKRERGDPSRH [R6A], the protein stability index stood at 3.88. As for VEKVLWRWVDEEWPKRERGDPSRH [R6W], the figure is 3.38; as for VEKVLRVWVDEEWPKRERGDPSRH [R7V], 3.43; as for VEKVLRCWVDEEWPKRERGDPSRH [R7C], 2.35. In the case of VEKVLRIWVDEEWPKRERGDPSRH [R7I], the protein stability index stood at 2.32. The same measure for VEKVLRPWVDEEWPKRERGDPSRH [R7P]: 3.9; for VEKVLRKWVDEEWPKRERGDPSRH [R7K]: 3.29; for VEKVLRMWVDEEWPKRERGDPSRH [R7M]: 2.69. VEKVLRWWVDEEWPKRERGDPSRH [R7W]: the protein stability index is 2.49. Take VEKVLRAWVDEEWPKRERGDPSRH [R7A]: the protein stability index was determined as 3.09. As for VEKVLRHWVDEEWPKRERGDPSRH [R7H], the figure is 3.56; as for VEKVLRQWVDEEWPKRERGDPSRH [R7Q], 3.45. The same measure for VEKVLREWVDEEWPKRERGDPSRH [R7E]: 3.91.

Turning to VEKVLRFWVDEEWPKRERGDPSRH [R7F], the protein stability index is 3.61.

As to VEKVLRLWVDEEWPKRERGDPSRH [R7L], the protein stability index was determined as 2.62. As for VEKVLRYWVDEEWPKRERGDPSRH [R7Y], the protein stability index is 2.7. The same measure for VEKVLRGWVDEEWPKRERGDPSRH [R7G]: 3.98; for VEKVLRDWVDEEWPKRERGDPSRH [R7D]: 4.05. For VEKVLRTWVDEEWPKRERGDPSRH [R7T], the protein stability index came out at 3.6. As for VEKVLRSWVDEEWPKRERGDPSRH [R7S], the figure is 3.46; as for VEKVLRNWVDEEWPKRERGDPSRH [R7N], 4.48. As for HEKVLRRWVDEEWPKRERGDPSRH [V1H], the figure is 3.42; as for PEKVLRRWVDEEWPKRERGDPSRH [V1P], 3.94; as for NEKVLRRWVDEEWPKRERGDPSRH [V1N], 3.91. As for AEKVLRRWVDEEWPKRERGDPSRH [V1A], the figure is 4.29; as for QEKVLRRWVDEEWPKRERGDPSRH [V1Q], 2.65; as for DEKVLRRWVDEEWPKRERGDPSRH [V1D], 4.36.

Turning to TEKVLRRWVDEEWPKRERGDPSRH [V1T], the protein stability index came to 2.91.

As for YEKVLRRWVDEEWPKRERGDPSRH [V1Y], the protein stability index came out at 2.56. As for KEKVLRRWVDEEWPKRERGDPSRH [V1K], the figure is 2.85; as for GEKVLRRWVDEEWPKRERGDPSRH [V1G], 3.61; as for WEKVLRRWVDEEWPKRERGDPSRH [V1W], 2.28.

On to LEKVLRRWVDEEWPKRERGDPSRH [V1L], for which the protein stability index is 2.19. With EEKVLRRWVDEEWPKRERGDPSRH [V1E], the protein stability index was found to be 4.19.

In the case of REKVLRRWVDEEWPKRERGDPSRH [V1R], the protein stability index is 4.16. As for FEKVLRRWVDEEWPKRERGDPSRH [V1F], the figure is 1.98; as for MEKVLRRWVDEEWPKRERGDPSRH [V1M], 2.95; as for IEKVLRRWVDEEWPKRERGDPSRH [V1I], 2.2. The same measure for CEKVLRRWVDEEWPKRERGDPSRH [V1C]: 2.77; for SEKVLRRWVDEEWPKRERGDPSRH [V1S]: 2.39.

Consider VEKTLRRWVDEEWPKRERGDPSRH [V4T], for which the protein stability index was determined as 3.08. The same measure for VEKILRRWVDEEWPKRERGDPSRH [V4I]: 2.69; for VEKPLRRWVDEEWPKRERGDPSRH [V4P]: 3.71. The same measure for VEKMLRRWVDEEWPKRERGDPSRH [V4M]: 2.67.
